The values below come from the Immune Epitope Database (IEDB).

For one assay, the target named is HLA-A*02:02. The assay can be described thus: IEDB peptide-MHC binding, purified MHC/competitive/radioactivity; ≥ and ≤ were set here for values at or beyond the usual limits of such assays.
Assay [1] concerns the target HLA-A*02:06. The description is as above.
The target of the next assay is HLA-A*02:03. The assay is described as follows: IEDB peptide-MHC binding, cellular MHC/competitive/fluorescence; ≥ and ≤ were set here for values at or beyond the usual limits of such assays.
Assay [2] concerns the target HLA-A*02:01. The assay is described as above.
Assay [3] has as its target HLA-A*68:02. Described as above.
Assay [4] has as its target HLA-A*68:02. The assay is described as follows: IEDB peptide-MHC binding, purified MHC/competitive/radioactivity; ≥ and ≤ were set here for values at or beyond the usual limits of such assays.
For assay [5], the target named is HLA-A*02:06. The assay is described as follows: IEDB peptide-MHC binding, cellular MHC/competitive/fluorescence; ≥ and ≤ were set here for values at or beyond the usual limits of such assays.
In assay [6] the target is HLA-A*02:01. The assay is described as follows: IEDB peptide-MHC binding, purified MHC/competitive/radioactivity; ≥ and ≤ were set here for values at or beyond the usual limits of such assays.
The mark [7] stands for this setting: source organism: Mammarenavirus brazilense.
Setting [8] is: source organism: Mammarenavirus choriomeningitidis.
Setting [9] is: source organism: Mammarenavirus guanaritoense.
Setting [10] is: source organism: Vaccinia virus WR.
Setting [11] is: source organism: Influenza A virus.
Where [12] appears, read: source organism: Mammarenavirus machupoense.

For the sequence LNISGYNYSL, the IC50 with HLA-A*02:02 (setting [7]) was determined as 0.077 µM; with HLA-A*02:06 [1] (setting [7]), 1.1 µM; with HLA-A*02:03 (setting [7]) it was 49 µM; in the assay with HLA-A*02:01 [2] (setting [7]), 10.6 µM; with HLA-A*68:02 [3] (setting [7]) it was 12.9 µM.

For LSYSQTMLL, the IC50 came to 2.11 µM in the assay with HLA-A*02:02 (setting [8]); 3.72 µM with HLA-A*02:06 [1] (setting [8]); 11.3 µM in the assay with HLA-A*02:03 (setting [8]); 8.28 µM with HLA-A*02:01 [2] (setting [8]); 6.76 µM with HLA-A*68:02 [3] (setting [8]).

As for MNNVVQALT, the IC50 was 2.29 µM in the assay with HLA-A*02:02 (setting [9]); 0.281 µM in the assay with HLA-A*68:02 [4] (setting [9]); 21.5 µM with HLA-A*02:03 (setting [9]); at least 70 µM with HLA-A*02:06 [5] (setting [9]); 7.48 µM in the assay with HLA-A*02:01 [2] (setting [9]).

As to NIEIMDKEQL, the IC50 in the assay with HLA-A*02:02 (setting [10]) turned out to be 3.47 µM; in the assay with HLA-A*02:01 [6] (setting [10]), 4.66 µM; with HLA-A*68:02 [4] (setting [10]), 1.38 µM; in the assay with HLA-A*02:03 (setting [10]), 15.5 µM; with HLA-A*02:06 [5] (setting [10]) it was 5.65 µM.

With NIVTDLENRL, the IC50 with HLA-A*02:02 (setting [10]) turned out to be 0.261 µM; in the assay with HLA-A*02:06 [1] (setting [10]), 1.55 µM; in the assay with HLA-A*02:03 (setting [10]), 17.6 µM; with HLA-A*02:01 [2] (setting [10]), 19.6 µM; with HLA-A*68:02 [3] (setting [10]), 13.2 µM.

NLEELTTVFI: the IC50 in the assay with HLA-A*02:02 (setting [10]) worked out at 0.418 µM; in the assay with HLA-A*68:02 [4] (setting [10]) it was 1.3 µM; with HLA-A*02:03 (setting [10]), 6.5 µM; with HLA-A*02:06 [5] (setting [10]) it was 12.3 µM; with HLA-A*02:01 [2] (setting [10]), 7.5 µM.

Regarding NQLDSSNKSM, the IC50 came out at 1.78 µM with HLA-A*02:02 (setting [10]); 0.635 µM in the assay with HLA-A*02:06 [1] (setting [10]); 30 µM with HLA-A*02:03 (setting [10]); 17.1 µM with HLA-A*02:01 [2] (setting [10]); 52.7 µM in the assay with HLA-A*68:02 [3] (setting [10]).

As for NVSRVVECLT, the IC50 is 4.66 µM with HLA-A*02:02 (setting [10]); 0.55 µM with HLA-A*68:02 [4] (setting [10]); 14.3 µM with HLA-A*02:03 (setting [10]); 10 µM in the assay with HLA-A*02:06 [5] (setting [10]); 9.45 µM with HLA-A*02:01 [2] (setting [10]).

As to PIPMSRLFM, the IC50 in the assay with HLA-A*02:02 (setting [10]) is 3.89 µM; in the assay with HLA-A*02:03 (setting [10]), 9.13 µM; with HLA-A*02:06 [5] (setting [10]), 31.4 µM; with HLA-A*68:02 [3] (setting [10]), at least 70 µM.

QAIMDKNIIL: the IC50 was found to be 0.937 µM with HLA-A*02:02 (setting [11]); 1.02 µM with HLA-A*02:01 [6] (setting [11]); 11.4 µM with HLA-A*02:03 (setting [11]); 13.4 µM in the assay with HLA-A*02:06 [5] (setting [11]); 8.92 µM with HLA-A*68:02 [3] (setting [11]).

As to QIYLSDSDNI, the IC50 with HLA-A*02:02 (setting [10]) was 1.24 µM; with HLA-A*68:02 [4] (setting [10]), 0.658 µM; in the assay with HLA-A*02:03 (setting [10]), 19.6 µM; with HLA-A*02:06 [5] (setting [10]) it was 14.9 µM; with HLA-A*02:01 [2] (setting [10]), 24.9 µM.

On to RAGYSIVEL, for which the IC50 in the assay with HLA-A*02:02 (setting [10]) was 4.94 µM; with HLA-A*02:01 [6] (setting [10]) it was 5 µM; in the assay with HLA-A*68:02 [4] (setting [10]), 1.21 µM; in the assay with HLA-A*02:03 (setting [10]), 5.39 µM; with HLA-A*02:06 [5] (setting [10]), 5.07 µM.

For the sequence RSASGGVYL, the IC50 is 0.278 µM with HLA-A*02:02 (setting [7]); 4.44 µM with HLA-A*68:02 [4] (setting [7]); 14.5 µM with HLA-A*02:03 (setting [7]); 13.6 µM with HLA-A*02:06 [5] (setting [7]); 32.5 µM with HLA-A*02:01 [2] (setting [7]).

As to RTRCKYVGCT, the IC50 with HLA-A*02:02 (setting [10]) is 0.149 µM; with HLA-A*68:02 [4] (setting [10]) it was 4.69 µM; in the assay with HLA-A*02:03 (setting [10]) it was 12.3 µM; in the assay with HLA-A*02:06 [5] (setting [10]) it was 11.6 µM; in the assay with HLA-A*02:01 [2] (setting [10]), 48.5 µM.

Turning to SCDDVVFGI, the IC50 in the assay with HLA-A*02:02 (setting [8]) was found to be 2.15 µM; with HLA-A*68:02 [4] (setting [8]), 0.306 µM; with HLA-A*02:03 (setting [8]), 50.5 µM; in the assay with HLA-A*02:06 [5] (setting [8]), 14.6 µM; with HLA-A*02:01 [2] (setting [8]), 5.61 µM.

On to SMGVYQILA, for which the IC50 in the assay with HLA-A*02:02 (setting [11]) stood at 0.518 µM; with HLA-A*02:01 [6] (setting [11]), 0.978 µM; in the assay with HLA-A*02:03 (setting [11]), 7.05 µM; with HLA-A*02:06 [5] (setting [11]), 10.4 µM; in the assay with HLA-A*68:02 [3] (setting [11]) it was 16.8 µM.

Consider SSWAVHWFS, for which the IC50 in the assay with HLA-A*02:02 (setting [12]) is 4.65 µM; with HLA-A*68:02 [4] (setting [12]), 4.1 µM; with HLA-A*02:03 (setting [12]) it was at least 70 µM; in the assay with HLA-A*02:06 [5] (setting [12]), 46.8 µM; with HLA-A*02:01 [2] (setting [12]), 8.01 µM.

On to TQSGALEVLM, for which the IC50 was found to be 0.836 µM in the assay with HLA-A*02:02 (setting [10]); 2.23 µM in the assay with HLA-A*02:06 [1] (setting [10]); 15.4 µM with HLA-A*02:03 (setting [10]); 10.6 µM with HLA-A*02:01 [2] (setting [10]); 12.3 µM with HLA-A*68:02 [3] (setting [10]).

Take TVGMLIYSM: the IC50 with HLA-A*02:02 (setting [10]) amounted to 0.49 µM; with HLA-A*02:01 [6] (setting [10]), 0.809 µM; with HLA-A*68:02 [4] (setting [10]), 1.79 µM; in the assay with HLA-A*02:03 (setting [10]), 6.09 µM; with HLA-A*02:06 [5] (setting [10]) it was 9.18 µM.

On to TVSSFQDIL, for which the IC50 with HLA-A*02:02 (setting [11]) stood at 0.457 µM; with HLA-A*68:02 [4] (setting [11]) it was 0.846 µM; in the assay with HLA-A*02:03 (setting [11]), 8.97 µM; with HLA-A*02:06 [5] (setting [11]) it was 13.8 µM; in the assay with HLA-A*02:01 [2] (setting [11]), 40.7 µM.

Consider VTTNNLLEQL, for which the IC50 was 4.69 µM with HLA-A*02:02 (setting [10]); 2.94 µM with HLA-A*68:02 [4] (setting [10]); 17.9 µM with HLA-A*02:03 (setting [10]); 5.91 µM with HLA-A*02:06 [5] (setting [10]); 21.6 µM in the assay with HLA-A*02:01 [2] (setting [10]).

Consider WLRAKRKPAM, for which the IC50 in the assay with HLA-A*02:02 (setting [10]) amounted to 4.67 µM; in the assay with HLA-A*68:02 [4] (setting [10]), 2.86 µM; with HLA-A*02:03 (setting [10]), 20.1 µM; with HLA-A*02:06 [5] (setting [10]) it was 11.9 µM; with HLA-A*02:01 [2] (setting [10]), 22.5 µM.

As for YVHSLLYSSM, the IC50 came out at 2.2 µM with HLA-A*02:02 (setting [10]); 2.25 µM in the assay with HLA-A*02:06 [1] (setting [10]); 6.71 µM with HLA-A*02:03 (setting [10]); 29 µM with HLA-A*02:01 [2] (setting [10]); 7.25 µM with HLA-A*68:02 [3] (setting [10]).

The term IC50 denotes the concentration that gives 50% inhibition.
